Self-cleavage data for 56 variants are collected here from the RNAGym collection of RNA variant scans (doi:10.7554/elife.90254).

B1: LINE1-mini (parent)
chain: GGCAGAGCUCAACACAGCGUGGCAAAGUGGCUGUGGCUAGACUGCC

Variants of B1 are the subject of the series. In words: self-cleavage, relative activity (ratio to wild type); higher = more cleavage; in vitro, sequencing; the parent is a self-cleaving ribozyme.
GGCAAAGCUCAACACAGCGUGGCAAAGUGGCUGUUGCUAGACUGCC [G5A G35U]: the self-cleavage was found to be 0.26.

Take GGCAAAGCUCAACACAGCGUGGCAAAGUGGCUGUCGCUAGACUGCC [G5A G35C]: the self-cleavage was 0.08.

With GGCAAAGGUCAACACAGCGUGGCAAAGUGGCUGUGGCUAGACUGCC [G5A C8G], the self-cleavage is 0.22.

As to GGCAAAGUUCAACACAGCGUGGCAAAGUGGCUGUGGCUAGACUGCC [G5A C8U], the self-cleavage was 0.44.

Turning to GGCAAAGAUCAACACAGCGUGGCAAAGUGGCUGUGGCUAGACUGCC [G5A C8A], the self-cleavage was found to be 0.27.

GGCAAAGCUCAACACAGCGUGGAAAAGUGGCUGUGGCUAGACUGCC [G5A C23A]: the self-cleavage was determined as 0.14.

Turning to GGCAAAGCUCAACACAGCGUGGUAAAGUGGCUGUGGCUAGACUGCC [G5A C23U], the self-cleavage was found to be 0.14.

For the variant GGCAAAGCUCAACACAGCGUGGGAAAGUGGCUGUGGCUAGACUGCC [G5A C23G], the self-cleavage was determined as 0.29.

For the variant GGCUGAGCUCAACACAGCGUGGCAAAGUGGCUGAGGCUAGACUGCC [A4U U34A], the self-cleavage is 0.08.

Turning to GGCUGAGCUCAACACAGCGUGGCAAAGUGGCUGCGGCUAGACUGCC [A4U U34C], the self-cleavage came to 0.08.

Consider GGCUGAGCUCAACACAGCGUGGCAAAGUGGCUGGGGCUAGACUGCC [A4U U34G], for which the self-cleavage came to 0.06.

Regarding GGCAAAGCUCAACAAAGCGUGGCAAAGUGGCUGUGGCUAGACUGCC [G5A C15A], the self-cleavage is 0.1.

For GGCAAAGCUCAACAUAGCGUGGCAAAGUGGCUGUGGCUAGACUGCC [G5A C15U], the self-cleavage is 0.11.

With GGCAAAGCUCAACAGAGCGUGGCAAAGUGGCUGUGGCUAGACUGCC [G5A C15G], the self-cleavage came out at 0.05.

With GGCAAAGCUCAACACAGCGUGGCAAAAUGGCUGUGGCUAGACUGCC [G5A G27A], the self-cleavage amounted to 0.1.

On to GGCAAAGCUCAACACAGCGUGGCAAACUGGCUGUGGCUAGACUGCC [G5A G27C], for which the self-cleavage amounted to 0.07.

For GGCAAAGCUCAACACAGCGUGGCAAAUUGGCUGUGGCUAGACUGCC [G5A G27U], the self-cleavage was 0.08.

For the variant GGCAAAGCUCAACACAGCCUGGCAAAGUGGCUGUGGCUAGACUGCC [G5A G19C], the self-cleavage is 0.06.

As for GGCAAAGCUCAACACAGCUUGGCAAAGUGGCUGUGGCUAGACUGCC [G5A G19U], the self-cleavage is 0.11.

In the case of GGCAAAGCUCAACACAGCAUGGCAAAGUGGCUGUGGCUAGACUGCC [G5A G19A], the self-cleavage is 0.29.

With GGCAAAGCUCAACACAGCGUGACAAAGUGGCUGUGGCUAGACUGCC [G5A G22A], the self-cleavage was 0.18.

For GGCAAAGCUCAACACAGCGUGCCAAAGUGGCUGUGGCUAGACUGCC [G5A G22C], the self-cleavage came out at 0.13.

In the case of GGCAAAGCUCAACACAGCGUGUCAAAGUGGCUGUGGCUAGACUGCC [G5A G22U], the self-cleavage came out at 0.14.

As for GGCAAAGCUCUACACAGCGUGGCAAAGUGGCUGUGGCUAGACUGCC [G5A A11U], the self-cleavage is 0.04.

As to GGCAAAGCUCGACACAGCGUGGCAAAGUGGCUGUGGCUAGACUGCC [G5A A11G], the self-cleavage was 0.03.

As to GGCAAAGCUCCACACAGCGUGGCAAAGUGGCUGUGGCUAGACUGCC [G5A A11C], the self-cleavage was found to be 0.03.

Regarding GGCAAAGCUCAACUCAGCGUGGCAAAGUGGCUGUGGCUAGACUGCC [G5A A14U], the self-cleavage amounted to 0.1.

On to GGCAAAGCUCAACCCAGCGUGGCAAAGUGGCUGUGGCUAGACUGCC [G5A A14C], for which the self-cleavage stood at 0.09.

In the case of GGCAAAGCUCAACGCAGCGUGGCAAAGUGGCUGUGGCUAGACUGCC [G5A A14G], the self-cleavage was 0.13.

For GGCAAAGCUCAACACAGCGUGGCAACGUGGCUGUGGCUAGACUGCC [G5A A26C], the self-cleavage was determined as 0.18.

GGCAAAGCUCAACACAGCGUGGCAAUGUGGCUGUGGCUAGACUGCC [G5A A26U]: the self-cleavage came to 0.19.

As for GGCAAAGCUCAACACAGCGUGGCAAGGUGGCUGUGGCUAGACUGCC [G5A A26G], the self-cleavage amounted to 0.1.

For GGCAAAGCUCAACACAGCGUGGCAAAGUGGCUGUGGCUAGGCUGCC [G5A A41G], the self-cleavage was determined as 0.04.

In the case of GGCAAAGCUCAACACAGCGUGGCAAAGUGGCUGUGGCUAGCCUGCC [G5A A41C], the self-cleavage was found to be 0.06.

As for GGCAAAGCUCAACACAGCGUGGCAAAGUGGCUGUGGCUAGUCUGCC [G5A A41U], the self-cleavage came to 0.08.

In the case of GGCAAAGCUCAACACAGCGUGGCAAAGUGGCUGUGCCUAGACUGCC [G5A G36C], the self-cleavage is 0.05.

As to GGCAAAGCUCAACACAGCGUGGCAAAGUGGCUGUGACUAGACUGCC [G5A G36A], the self-cleavage was 0.28.

On to GGCAAAGCUCAACACAGCGUGGCAAAGUGGCUGUGUCUAGACUGCC [G5A G36U], for which the self-cleavage is 0.14.

Take GGCAAUGCUCAACACAGCGUGGCAAAGUGGCUGUGGCUAGACUGCC [G5A A6U]: the self-cleavage came to 0.12.

With GGCAAGGCUCAACACAGCGUGGCAAAGUGGCUGUGGCUAGACUGCC [G5A A6G], the self-cleavage came out at 0.13.

Regarding GGCAACGCUCAACACAGCGUGGCAAAGUGGCUGUGGCUAGACUGCC [G5A A6C], the self-cleavage worked out at 0.2.

GGCAAAGCUCAACACAGCGUGGCAGAGUGGCUGUGGCUAGACUGCC [G5A A25G]: the self-cleavage is 0.14.

Turning to GGCAAAGCUCAACACAGCGUGGCAUAGUGGCUGUGGCUAGACUGCC [G5A A25U], the self-cleavage turned out to be 0.12.

GGCAAAGCUCAACACAGCGUGGCACAGUGGCUGUGGCUAGACUGCC [G5A A25C]: the self-cleavage is 0.07.

Regarding GGCAAAGCUCAACACAGCGUGGCAAAGUGGAUGUGGCUAGACUGCC [G5A C31A], the self-cleavage was determined as 0.08.

Regarding GGCAAAGCUCAACACAGCGUGGCAAAGUGGGUGUGGCUAGACUGCC [G5A C31G], the self-cleavage was determined as 0.05.

As for GGCAAAGCUCAACACAGCGUGGCAAAGUGGUUGUGGCUAGACUGCC [G5A C31U], the self-cleavage came out at 0.06.

For GGCAAAGCUCAGCACAGCGUGGCAAAGUGGCUGUGGCUAGACUGCC [G5A A12G], the self-cleavage is 0.08.

As for GGCAAAGCUCAUCACAGCGUGGCAAAGUGGCUGUGGCUAGACUGCC [G5A A12U], the self-cleavage came out at 0.09.

Turning to GGCAAAGCUCACCACAGCGUGGCAAAGUGGCUGUGGCUAGACUGCC [G5A A12C], the self-cleavage stood at 0.04.

In the case of GGCAAAGCUCAACACAGAGUGGCAAAGUGGCUGUGGCUAGACUGCC [G5A C18A], the self-cleavage was found to be 0.1.

For GGCAAAGCUCAACACAGUGUGGCAAAGUGGCUGUGGCUAGACUGCC [G5A C18U], the self-cleavage was found to be 0.14.

With GGCAAAGCUCAACACAGGGUGGCAAAGUGGCUGUGGCUAGACUGCC [G5A C18G], the self-cleavage worked out at 0.09.

With GGCAAAGCUCAACACAGCGUGGCAAAGUUGCUGUGGCUAGACUGCC [G5A G29U], the self-cleavage came out at 0.13.

With GGCAAAGCUCAACACAGCGUGGCAAAGUAGCUGUGGCUAGACUGCC [G5A G29A], the self-cleavage is 0.1.

GGCAAAGCUCAACACAGCGUGGCAAAGUCGCUGUGGCUAGACUGCC [G5A G29C]: the self-cleavage turned out to be 0.07.
